Assay [1] deals with T1, mouse ICOS expressed on CHO cells (mouse, UniProt Q9WVS0 21-141).
T1 construct: the cell-expressed form may differ; also called mICOS; CHO mouse ICOS
T1 sequence: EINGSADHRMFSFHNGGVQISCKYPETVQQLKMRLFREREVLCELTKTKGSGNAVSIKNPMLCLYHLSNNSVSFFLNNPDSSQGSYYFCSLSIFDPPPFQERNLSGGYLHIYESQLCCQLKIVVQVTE
Kind of assay: flow cytometry, CHO mouse ICOS cells, anti-human IgG AF647, mean. The procedure: CHO-S cells transfected with either human ICOS or mouse ICOS were resuspended in FACS buffer (PBS+1% w/v BSA+0.1% w/v sodium azide) and transferred to a 96-well V-bottom plate (Greiner) at a density of 1×10⁵ cells per well. mAb and mAb² were titrated in FACS buffer, 1 in 3 dilution across 11 points from a starting working concentration of 400 nM. Plates were centrifuged at 300×g for 3 minutes, supernatant discarded and 50 μL mAb or mAb² solution were added to cells and incubated at 4° C. for 1 hour. Cells were washed with 150 μL of PBS and centrifuged at 300×g for 3 minutes, supernatant was discarded and cell pellet resuspended in 150 μL PBS added. This wash step was repeated twice. […] Cells were incubated for 1 hour at 4° C. in the dark. Cells were washed with 150 μL of PBS and centrifuged at 300 g for 3 minutes, supernatant was discarded and cell pellet resuspended in 150 μL PBS added. This wash step was repeated twice. Cells were fixed with 25 μL 4% v/v paraformaldehyde, incubated for 20 minutes at 4° C., cells were pelleted by centrifugation at 300×g and the supernatant discarded. Cells were washed with 150 μL of PBS and centrifuged at 300 g for 3 minutes, supernatant was discarded and cell pellet resuspended in 150 μL PBS added. This wash step was repeated. Pelleted cells were resuspended in 110 μL 1×PBS.

For assay [2], the target named is T2, human ICOS-mFc (Chimerigen) (human, UniProt Q9Y6W8 21-140, limits assumed).
T2 construct: Bought fusion; also called hICOS; recombinant human ICOS protein; not shown: mouse Fc
T2 sequence: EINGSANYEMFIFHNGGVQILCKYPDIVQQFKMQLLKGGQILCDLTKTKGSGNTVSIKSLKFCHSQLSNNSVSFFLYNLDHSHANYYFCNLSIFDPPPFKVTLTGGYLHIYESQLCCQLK
Kind of assay: HTRF neutralisation of human B7-H2 binding to human ICOS-mFc, n1. How it is done:
(§1) 5 μl of human ICOS-mFc (Chimerigen) at 20 nM (5 nM final) or 5 μl of mouse ICOS-mFc (Chimerigen) at 4 nM (1 nM final) were added to relevant assay wells. Plate was incubated for 1 hour (hr) at room temperature (RT).
(§2) After incubation, assay was read on Envision plate reader (Perkin Elmer) using a standard HTRF protocol. 620 nm and 665 nm channel values were exported to Microsoft Excel and % Delta-F and % Neutralisation calculations performed. Titration curves and IC50 values [M] were plotted using Graphpad (Prism). IC50 values were calculated by first transforming the data using equation X=Log(X). The transformed data was then fitted using nonlinear regression, using fitting algorithm, log (inhibitor) vs. response-variable slope (four parameters).

Assay [3] deals with T2, human ICOS-mFc (Chimerigen). Kind of assay: DELFIA ELISA, coated human ICOS-mFc, mean. The procedure:
(§3) Recombinant ICOS proteins, human ICOS-mFc or mouse ICOS-mFc (Chimerigen) were diluted in 1×PBS and added to Black Hi-bind plates (Griener) at 1 μg/ml, 50 μl/well. Recombinant PD-L1 proteins, human PD-L1-Flag-His or mouse-His were diluted in 1×PBS and added to Black Hi-bind plates (Griener) at 4 μg/ml, 50 μl/well. The plates were left overnight at 4° C. The next day plates were washed 3× with 300 μl/well of 1×PBS+0.1% Tween and blocked with 200 μl/well of 1×PBS+1% BSA blocking buffer for 1 hr at RT on a plate shaker. Plates were washed 3× with 300 μl/well of 1×PBS+0.1% Tween.
(§4) However, human-PD-L1 mAb² antibodies were diluted in 1×PBS+0.1% BSA buffer and diluted 1 in 2 from a starting working concentration of 0.066 μM over an 11 point titration. Titrated antibodies were added to the plates, 50 μl/well and left to incubate for 1 hr at R.T on a plate shaker. Plates were washed 3× with 300 μl/well of 1×PBS+0.1% Tween.
(§5) DELFIA® Eu-labelled Anti-human IgG(Perkin-Elmer) was diluted 1:500 in DELFIA Assay buffer (Perkin-Elmer) and added to the assay plate (50 μl/well), left to incubate for 1 hr at RT on a plate shaker. […] After incubation, assay was read on Envision plate reader (Perkin Elmer), Time-resolved fluorescence (TRF) was measured at 615 nm.

The target is the same in assay [4]. Kind of assay: HTRF neutralisation of human B7-H2 binding to human ICOS-mFc, average. The procedure: as §1, §2
Assay [5] deals with T3, Biotinylated human ICOS protein (human, UniProt Q9Y6W8 21-140, limits assumed, biotinylated).
T3 sequence: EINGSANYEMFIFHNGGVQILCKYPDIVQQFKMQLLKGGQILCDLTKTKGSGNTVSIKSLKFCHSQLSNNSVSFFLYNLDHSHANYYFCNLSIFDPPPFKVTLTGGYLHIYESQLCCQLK
The assay is described as follows: avidity SPR (ProteOn), biotinylated hICOS on NLC chip, antibody analyte. How it is done:
(§6) Biotinylated human ICOS protein diluted at 7.5 μg/mL in running buffer (1×HBS-EP+Buffer Technova, cat. No. H8022) was captured on a NLC sensor chip (Bio-Rad, cat No 1765021). The surface was then blocked using biocytin (Sigma Aldrich, cat No B1758) at 1 mg/mL.
(§7) The assay was carried out at 25° C.
(§8) The buffer injection (i.e. 0 nM) was used to double reference the sensorgrams. The analysis was carried out using the equilibrium model inherent to the ProteOn's analysis software for each mAb² construct.

Assay [6] concerns the target T3, Biotinylated human ICOS protein. The assay is described as follows: avidity SPR (ProteOn), biotinylated hICOS on NLC chip, antibody analyte; apparent KD from equilibrium. The procedure: as §6, §7, §8
The target in assay [7] is T4, mouse ICOS-mFc (Chimerigen) (mouse, UniProt Q9WVS0 21-141, limits assumed).
T4 construct: Bought fusion; also called mICOS; recombinant mouse ICOS protein; not shown: mouse Fc
T4 sequence: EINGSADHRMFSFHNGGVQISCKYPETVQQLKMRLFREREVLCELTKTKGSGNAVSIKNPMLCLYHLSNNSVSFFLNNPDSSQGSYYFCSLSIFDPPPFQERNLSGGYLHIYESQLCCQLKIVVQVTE
The assay is described as follows: HTRF neutralisation of mouse B7-H2 binding to mouse ICOS-mFc, mean as told in text (table prints 5.07). The procedure:
as §2

The target in assay [8] is T4, mouse ICOS-mFc (Chimerigen). The assay is described as follows: DELFIA ELISA, coated mouse ICOS-mFc, mean (only N=1 kept). How it is done: as §3, §4, §5

B1: STIM003_457 (bispecific antibody, V domains shown, not shown: a dimerising Fc or GST)
VH: EVQLVESGGGVVRPGGSLRLSCVASGVTFDDYGMSWVRQAPGKGLEWVSGINWNGGDTDYSDSVKGRFTISRDNAKNSLYLQMNSLRAEDTALYYCARDFYGSGSYYHVPFDYWGQGILVTVSS
VL: EIVLTQSPGTLSLSPGERATLSCRASQSVSRSYLAWYQQKRGQAPRLLIYGASSRATGIPDRFSGDGSGTDFTLSISRLEPEDFAVYYCHQYDMSPFTFGPGTKVDIK
notes: mAb^2 IgG1; also called ST1M003_457; STIM003_457 mAb^2
On to B1, for which the 50% effective concentration (EC50) in assay [1] was found to be 10.6 nM; in assay [3] it was 0.43 nM. Also, the values for the IC50 in assay [2] and in assay [4] were 0.44 nM and 0.56 nM, respectively. In assay [5], this molecule displayed an off-rate constant (koff) of 0.000244 s⁻¹. Also, in assay [6], the Kd came to 0.9 nM.

B2: STIM001_457 (bispecific antibody, V domains shown, not shown: a dimerising Fc or GST)
VH: QVQVVQSGAEVKKPGASVKVSCKASGYTFSTFGITWVRQAPGQGLEWMGWISAYNGDTNYAQNLQGRVIMTTDTSTSTAYMELRSLRSDDTAVYYCARSSGHYYYYGMDVWGQGTTVTVSS
VL: DIVMTQSPLSLPVTPGEPASISCRSSQSLLHSNEYNYLDWYLQKPGQSPQLLIFLGSNRASGVPDRFSGSGSGTDFTLKITRVEAEDVGIYYCMQSLQTPLTFGGGTKVEIK
notes: mAb^2 IgG1; also called STIM001_457 mAb^2
Turning to B2, the EC50 in assay [1] worked out at 5.21 nM; in assay [3], 12.6 nM; in assay [8] it was 23.6 nM. The half-inhibitory concentration (IC50) in assay [2] turned out to be 1.1 nM; in assay [4], 1.6 nM; in assay [7], 5.16 nM. In assay [5], this molecule yielded a koff of 0.000346 s⁻¹. In assay [6], the Kd came out at 9.2 nM.

The values above are taken from patent publication US20260049143A1 (KYMAB, published 2026).
